Data: patent publication EP4714976A1 (Sunshine Lake Pharma Co., Ltd., dated 2026)
Positions count from the first letter of the chain named. Like-named read-outs stand apart in the source and are kept apart here.

B1: 3A8 scFv-Fc (Fc fusion)
chain: QVQLQQSGAELVKPGASVKMSCKASGYTFTIYNIHWVRQTPGQGLEWIGLIYPDNGDTSYNQKFKAKATLTADKSSSTAYMQLSSLTSEDSAVYYCARGGFDYWGQGTSLTVSSGGGGSGGGGSGGGGSDIVMTQSQKFMSTSVGDRVSVTCKASQNVGTNVAWYQQKPGQSPKALIYSASYRYSGVPDRFTGSGSGTDFTLTISNVQAEDLADYFCQQHYSTPYTFGGGTKLEMKESKYGPPCPPCPAPEAAGGPSVFLFPPKPKDTLMISRTPEVTCVVVDVSQEDPEVQFNWYVDGVEVHNAKTKPREEQFNSTYRVVSVLTVLHQDWLNGKEYKCKVSNKGLPSSIEKTISKAKGQPREPQVYTLPPSQEEMTKNQVSLTCLVKGFYPSDIAVEWESNGQPENNYKTTPPVLDSDGSFFLYSKLTVDKSRWQEGNVFSCSVMHEALHNHYTQKSLSLSLG
notes: scFv-Fc dimer
B2: 3D7 scFv displayed on phage (scFv)
scFv: QVQLQQSGAELVKPGASVKMSCKASGYTFSFYNMHWVKRTPGRGLEWIGLIYPDNGDTSYNQKFKGKATLTADTSSSTAYMQLSSLTSEDSAVYYCARGGLDYWGQGTSLTVSSGGGGSGGGGSGGGGSEIVLTQSPASLAVSLGQRATISCKASQSVDYDGDSYMNWYQQKPGQPPKLLIYGISNRFSGVPDRFSGSGSGTDFTLKISTIKPEDLGMYYCLQGTHQPYTFGGGTKLEIK
B3: 3B4 scFv-Fc (Fc fusion)
chain: EVQLQQSGADLVKPGASVKMSCKASGYTFSYYNMHWVRRTPGQGLEWIGLIYPDNGDTSYNQKFKGKATLTADTSSSTAYMQLSSLTSEDSAVYYCARGGLDYWGQGTTLTVSSGGGGSGGGGSGGGGSDIQMIQSPASMSASVGETVTITCGASENIYGALNWYQRKQGKSPQLLIYGATNLADGMSSRFSGSGSGRQYSLKISSLHPDDVATYYCQNVLSTPYTFGGGTKLEMKESKYGPPCPPCPAPEAAGGPSVFLFPPKPKDTLMISRTPEVTCVVVDVSQEDPEVQFNWYVDGVEVHNAKTKPREEQFNSTYRVVSVLTVLHQDWLNGKEYKCKVSNKGLPSSIEKTISKAKGQPREPQVYTLPPSQEEMTKNQVSLTCLVKGFYPSDIAVEWESNGQPENNYKTTPPVLDSDGSFFLYSKLTVDKSRWQEGNVFSCSVMHEALHNHYTQKSLSLSLG
notes: scFv-Fc dimer
B4: 3E3 scFv-Fc (Fc fusion)
chain: QVQLQQPGAVLVKPGASVRMSCKASGYTFPYYNVHWVKRTPGQGLEWIGLIYPDNGDTSYNQKFTGKATLTADTSSSTAYMQLSSLTSEDSAVYYCARGGLDYWGQGTTLTVSAGGGGSGGGGSGGGGSDVQITQSPASLSASVGETVTITCGASENIYGALNWYQRKQGKSPQLLIYGATNLADGMSSRFSGSGSGRQYSLKISSLHPDDVATYYCQNVLSTPYTFGGGTKLEIKESKYGPPCPPCPAPEAAGGPSVFLFPPKPKDTLMISRTPEVTCVVVDVSQEDPEVQFNWYVDGVEVHNAKTKPREEQFNSTYRVVSVLTVLHQDWLNGKEYKCKVSNKGLPSSIEKTISKAKGQPREPQVYTLPPSQEEMTKNQVSLTCLVKGFYPSDIAVEWESNGQPENNYKTTPPVLDSDGSFFLYSKLTVDKSRWQEGNVFSCSVMHEALHNHYTQKSLSLSLG
notes: scFv-Fc dimer
B5: 1A3 scFv displayed on phage (scFv)
scFv: QVQLQQPGAELVKPGASVKMSCKASGYTFASYNLHWVKQTPGQGLEWIGLIYPENGDTSYNQKFKGKATLTADKSSSTAYIQLSSLTSEDSAVYFCARGGFDYWGQGTTLTVSQGGGGSGGGGSGGGGSDIQMTQSPASLSASVGETVTITCGASENIYGALNWYQRKQGKSPQLLIYGATNLADGMSSRFSGSGSGRQYSLKISSLHPDDVATYYCQNVLSTPYTFGGGTKLEIK
B6: 3C7-VH2-VL1 (antibody, human IgG1, kappa, V domains shown)
VH: QVQLVQSGAEVKKPGASVKVSCKASGYIFRNYYIHWVRQAPGQGLEWMGAIYPDNGDTSYNQRFKVRATLTADTSTSTVYMELSSLRSEDTAVYYCARAFTYWGQGTTVTVSS
VL: DIQMTQSPSSLSASVGDRVTITCGASENIYGALNWYQQKPGKAPKLLIYGATNLADGVPSRFSGSGSGTDYTLTISSLQPEDVATYYCQNVLSTPYTFGGGTKVEIKR
notes: humanized IgG1
B7: 3C7-VH2-VL3 (antibody, human IgG1, kappa, V domains shown)
VH: B6 VH
VL: B6 VL with Q38R, A43S, V104L
notes: humanized IgG1
B8: 3C7-VH3-VL2 (antibody, human IgG1, kappa, V domains shown)
VH: B6 VH with R38K
VL: B6 VL with Q38R, V83F, V104L
notes: humanized IgG1
B9: 3C7-VH3-VL0 (antibody, human IgG1, kappa, V domains shown)
VH: B6 VH with R38K
VL: B6 VL with G24R, Y71F, V83F
notes: humanized IgG1
B10: 3C7-VH3-VL1 (antibody, human IgG1, kappa, V domains shown)
VH: B6 VH with R38K
VL: B6 VL
notes: humanized IgG1
B11: 3C7-VH3-VL3 (antibody, human IgG1, kappa, V domains shown)
VH: B6 VH with R38K
VL: B6 VL with Q38R, A43S, V104L
notes: humanized IgG1
B12: 1G6 scFv-Fc (Fc fusion)
chain: EIQLQQSGAELVKPGASVKMSCKASGYTFRYYNMHWVKRTPGQGLEWIGLIYPDNGDTSYNQKFKGKATLTADTSSSTAYMQLSSLTSEDSAVYYCARGGLDYWGQGTSLTVSSGGGGSGGGGSGGGGSNIVMTQSHKFMSTSVGDRVSITCKASQDVNTDVAWYQQKPGQSPKLLIYSASYRYTGVPTRFTGSGSGTDFTFTISGVQAEDLADYYCQQHYNTPYTFGGGTKLELKESKYGPPCPPCPAPEAAGGPSVFLFPPKPKDTLMISRTPEVTCVVVDVSQEDPEVQFNWYVDGVEVHNAKTKPREEQFNSTYRVVSVLTVLHQDWLNGKEYKCKVSNKGLPSSIEKTISKAKGQPREPQVYTLPPSQEEMTKNQVSLTCLVKGFYPSDIAVEWESNGQPENNYKTTPPVLDSDGSFFLYSKLTVDKSRWQEGNVFSCSVMHEALHNHYTQKSLSLSLG
notes: scFv-Fc dimer

Assays:
[1] = biological target: T1, human FGFR2b (Kaixia Biotechnology, catalog number FGR-HM1BB) (human, UniProt P21802-3 22-378); assay: ELISA, FGFR2b coated at 1 µg/ml
T1 construct: extracellular domain; bought; also called hFGFR2b; human FGFR2b protein
T1 sequence (P21802 other isoform, or with tags, fused parts or gaps): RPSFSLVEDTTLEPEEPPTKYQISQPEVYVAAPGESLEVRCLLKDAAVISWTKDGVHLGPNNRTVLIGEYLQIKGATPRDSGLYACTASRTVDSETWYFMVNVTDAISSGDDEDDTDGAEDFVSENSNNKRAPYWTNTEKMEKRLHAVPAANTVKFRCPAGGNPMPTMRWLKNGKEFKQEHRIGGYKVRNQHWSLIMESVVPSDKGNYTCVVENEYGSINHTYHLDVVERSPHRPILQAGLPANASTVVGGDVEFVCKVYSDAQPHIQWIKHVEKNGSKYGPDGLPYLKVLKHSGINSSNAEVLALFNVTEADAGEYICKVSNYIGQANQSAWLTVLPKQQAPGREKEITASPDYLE

[2] = biological target: T1, human FGFR2b (Kaixia Biotechnology, …); assay: BLI, antibody on AHC2 sensor
FGFR2b on KATO III cells [3] = biological target: T2, FGFR2b on KATO III cells (human, UniProt P21802-3 22-822); assay: flow cytometry, KATO III cells
T2 construct: whole, on cells; also called KATO III cells that overexpress FGFR2b
T2 sequence (P21802 other isoform, or with tags, fused parts or gaps): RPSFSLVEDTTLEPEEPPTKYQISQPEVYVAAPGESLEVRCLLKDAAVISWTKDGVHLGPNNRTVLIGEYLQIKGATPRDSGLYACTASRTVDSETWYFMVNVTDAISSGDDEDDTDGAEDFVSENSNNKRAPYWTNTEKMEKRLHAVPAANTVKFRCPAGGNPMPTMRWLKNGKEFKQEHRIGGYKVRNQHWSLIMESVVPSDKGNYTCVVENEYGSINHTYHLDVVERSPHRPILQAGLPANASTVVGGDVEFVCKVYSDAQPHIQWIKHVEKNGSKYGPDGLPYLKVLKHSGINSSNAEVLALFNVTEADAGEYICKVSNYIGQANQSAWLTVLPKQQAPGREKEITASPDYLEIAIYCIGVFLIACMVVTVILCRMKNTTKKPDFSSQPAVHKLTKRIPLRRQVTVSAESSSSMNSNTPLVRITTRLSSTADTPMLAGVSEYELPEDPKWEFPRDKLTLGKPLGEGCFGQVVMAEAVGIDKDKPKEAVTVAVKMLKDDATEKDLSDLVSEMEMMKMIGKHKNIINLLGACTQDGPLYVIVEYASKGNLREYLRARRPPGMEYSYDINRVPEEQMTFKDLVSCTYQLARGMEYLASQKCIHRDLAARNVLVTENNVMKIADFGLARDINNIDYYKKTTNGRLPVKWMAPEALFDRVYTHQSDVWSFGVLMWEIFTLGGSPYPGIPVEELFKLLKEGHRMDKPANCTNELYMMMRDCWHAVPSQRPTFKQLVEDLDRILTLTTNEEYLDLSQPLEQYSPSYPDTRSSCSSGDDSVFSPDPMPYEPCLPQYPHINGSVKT

[4] = biological target: T3, extracellular domain of FGFR2c protein (Example 1) (UniProt P21802 22-377); assay: phage ELISA
T3 construct: extracellular domain
T3 sequence (P21802 22-377): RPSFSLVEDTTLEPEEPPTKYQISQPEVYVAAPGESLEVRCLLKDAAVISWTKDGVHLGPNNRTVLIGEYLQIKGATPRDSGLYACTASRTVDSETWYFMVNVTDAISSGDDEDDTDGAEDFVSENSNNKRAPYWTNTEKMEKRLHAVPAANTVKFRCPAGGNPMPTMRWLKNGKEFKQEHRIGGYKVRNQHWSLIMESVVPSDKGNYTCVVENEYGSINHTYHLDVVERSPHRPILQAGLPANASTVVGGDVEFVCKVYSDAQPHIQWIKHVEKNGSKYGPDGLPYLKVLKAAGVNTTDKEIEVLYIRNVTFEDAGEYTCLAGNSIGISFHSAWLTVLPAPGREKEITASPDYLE

[5] = biological target: T4, recombinant cynomolgus monkey FGFR2b (cynomolgus monkey); assay: ELISA, antibody 1ug/mL
T4 construct: extracellular domain; bought; also called cynomolgus macaque FGFR2b

FGFR2c (acro) = FGFR2c (acro) (UniProt P21802 22-377); assay: ELISA, antibody 10 µg/mL
Chain of FGFR2c (acro) (P21802 22-377): as above

[6] = biological target: T1, human FGFR2b (Kaixia Biotechnology, …); assay: BLI, antibody on AHC2 sensor; remark: listed apart in the source
FGFR2b on KATO III cells [7] = biological target: T2, FGFR2b on KATO III cells; assay: flow cytometry, KATO III cells; remark: listed apart in the source

| Binder | EC50 [1] | Kd [2] | koff [2] | kon [2] | EC50 (FGFR2b on KATO III cells [3]) | Kd [6] | koff [6] | kon [6] | EC50 (FGFR2b on KATO III cells [7]) | also measured |
| --- | --- | --- | --- | --- | --- | --- | --- | --- | --- | --- |
| B1 | 0.0278 µg/mL | 3.48 nM | 0.0009 s⁻¹ | 259000 M⁻¹ s⁻¹ | 0.199 µg/mL | – | – | – | – | – |
| B2 | – | – | – | – | – | – | – | – | – | OD (450 nm) value [4]: 0.037 |
| B3 | 0.0166 µg/mL | 6.28 nM | 0.00195 s⁻¹ | 311000 M⁻¹ s⁻¹ | 0.168 µg/mL | – | – | – | – | OD (450 nm) value [5]: 3.32; OD (450 nm) value (FGFR2c (acro)): 0.327 |
| B4 | 0.0273 µg/mL | 8.18 nM | 0.00184 s⁻¹ | 225000 M⁻¹ s⁻¹ | 0.376 µg/mL | – | – | – | – | OD (450 nm) value [5]: 3.09 |
| B5 | – | – | – | – | – | – | – | – | – | OD (450 nm) value [4]: 0.212 |
| B6 | – | – | – | – | – | 2.92 nM | 0.000718 s⁻¹ | 246000 M⁻¹ s⁻¹ | 0.302 µg/mL | – |
| B7 | – | – | – | – | – | 2.77 nM | 0.000754 s⁻¹ | 272000 M⁻¹ s⁻¹ | 0.572 µg/mL | – |
| B8 | – | – | – | – | – | 2.48 nM | 0.000829 s⁻¹ | 334000 M⁻¹ s⁻¹ | 0.523 µg/mL | – |
| B9 | – | – | – | – | – | 2.51 nM | 0.000831 s⁻¹ | 331000 M⁻¹ s⁻¹ | 0.624 µg/mL | – |
| B10 | – | – | – | – | – | 2.46 nM | 0.00106 s⁻¹ | 429000 M⁻¹ s⁻¹ | 0.446 µg/mL | – |
| B11 | – | – | – | – | – | 2.43 nM | 0.000777 s⁻¹ | 320000 M⁻¹ s⁻¹ | 0.536 µg/mL | – |
| B12 | 0.0235 µg/mL | 3.97 nM | 0.00149 s⁻¹ | 374000 M⁻¹ s⁻¹ | 0.186 µg/mL | – | – | – | – | OD (450 nm) value [5]: 3.24 |
